In article PMC4200255:

Target: recombinant purified protein HSP70-1A (UniProt P0DMV8)
UniProt P0DMV8, sequence (P0DMV8 whole entry): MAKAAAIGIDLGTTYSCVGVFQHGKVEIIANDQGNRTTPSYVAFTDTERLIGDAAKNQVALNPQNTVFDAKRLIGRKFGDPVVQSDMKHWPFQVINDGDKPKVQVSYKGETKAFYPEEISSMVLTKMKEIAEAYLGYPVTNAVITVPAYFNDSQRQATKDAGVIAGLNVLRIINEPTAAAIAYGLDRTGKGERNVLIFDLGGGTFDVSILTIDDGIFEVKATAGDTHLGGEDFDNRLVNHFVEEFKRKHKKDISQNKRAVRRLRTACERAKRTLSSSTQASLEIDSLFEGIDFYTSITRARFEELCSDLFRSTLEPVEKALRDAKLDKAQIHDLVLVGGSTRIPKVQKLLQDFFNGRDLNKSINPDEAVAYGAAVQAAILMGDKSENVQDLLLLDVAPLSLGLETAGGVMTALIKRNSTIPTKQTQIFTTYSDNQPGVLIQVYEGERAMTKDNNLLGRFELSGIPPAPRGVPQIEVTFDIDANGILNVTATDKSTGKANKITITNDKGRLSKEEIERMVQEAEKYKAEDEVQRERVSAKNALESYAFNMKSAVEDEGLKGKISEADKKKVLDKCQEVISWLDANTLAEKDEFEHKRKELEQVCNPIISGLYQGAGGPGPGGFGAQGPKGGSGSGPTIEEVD

stimulation of the ATPase activity of 0.7 μM HSP70 by 500 μM peptide (malachite green, 37 °C)	Binder
2 fold	TPGTFKERIIKSITPETPTE [20-mer peptide of the serotonin transporter C terminus (lacks the first 4 amino acids RLII)]
4 fold	RLIITPGTFKERIIKSITPETPTE [24-mer peptide of the serotonin transporter C terminus]
